Assay results as given in US20100311648A1 (AstraZeneca / MedImmune, published 2010).
Positions of bridges follow the written chain, without caps; N, C: chain ends. Non-standard residues stand in square brackets, D forms with d. dPhe(3,4,5-F3) = N[C@H](Cc1cc(F)c(F)c(F)c1)C(=O)O; dPhe(2-CF3) = N[C@H](Cc1ccccc1C(F)(F)F)C(=O)O; dPhe(3,5-F2) = N[C@H](Cc1cc(F)cc(F)c1)C(=O)O; dPhe(4-CN) = N#Cc1ccc(C[C@@H](N)C(=O)O)cc1; dPhe(3-Cl) = N[C@H](Cc1cccc(Cl)c1)C(=O)O; dPhe(3-Me) = Cc1cccc(C[C@@H](N)C(=O)O)c1; dPhe(2-Cl) = N[C@H](Cc1ccccc1Cl)C(=O)O; dPhe(2-Me) = Cc1ccccc1C[C@@H](N)C(=O)O; dPhe(4-F) = N[C@H](Cc1ccc(F)cc1)C(=O)O; dPhe(2-F) = N[C@H](Cc1ccccc1F)C(=O)O; Orn = NCCC[C@H](N)C(=O)O

B1: Ac-Arg-cyclo(Orn-Pro-D-Phe(2-F)-Arg-Trp-Glu)-NH2 (peptide)
peptide: Ac-R[Orn]P[dPhe(2-F)]RWE-NH2
modifications: lactam 2-7
SMILES: CC(=O)N[C@@H](CCCNC(=N)N)C(=O)N[C@H]1CCCNC(=O)CC[C@@H](C(N)=O)NC(=O)[C@H](Cc2c[nH]c3ccccc23)NC(=O)[C@H](CCCNC(=N)N)NC(=O)[C@@H](Cc2ccccc2F)NC(=O)[C@@H]2CCCN2C1=O
B2: Ac-Arg-cyclo(Glu-Gln-D-Phe(3,4,5-triF)-Arg-Trp-Orn)-NH2 (peptide)
peptide: Ac-REQ[dPhe(3,4,5-F3)]RW[Orn]-NH2
modifications: lactam 2-7
SMILES: CC(=O)N[C@@H](CCCNC(=N)N)C(=O)N[C@H]1CCC(=O)NCCC[C@@H](C(N)=O)NC(=O)[C@H](Cc2c[nH]c3ccccc23)NC(=O)[C@H](CCCNC(=N)N)NC(=O)[C@@H](Cc2cc(F)c(F)c(F)c2)NC(=O)[C@H](CCC(N)=O)NC1=O
B3: Ac-Arg-cyclo(Glu-Arg-D-Phe(3-Cl)-Arg-Trp-Orn)-NH2 (peptide)
peptide: Ac-RER[dPhe(3-Cl)]RW[Orn]-NH2
modifications: lactam 2-7
SMILES: CC(=O)N[C@@H](CCCNC(=N)N)C(=O)N[C@H]1CCC(=O)NCCC[C@@H](C(N)=O)NC(=O)[C@H](Cc2c[nH]c3ccccc23)NC(=O)[C@H](CCCNC(=N)N)NC(=O)[C@@H](Cc2cccc(Cl)c2)NC(=O)[C@H](CCCNC(=N)N)NC1=O
notes: also called No. 99
B4: Ac-Arg-cyclo(Glu-Thr-D-Phe(3-Cl)-Arg-Trp-Orn)-NH2 (peptide)
peptide: Ac-RET[dPhe(3-Cl)]RW[Orn]-NH2
modifications: lactam 2-7
SMILES: CC(=O)N[C@@H](CCCNC(=N)N)C(=O)N[C@H]1CCC(=O)NCCC[C@@H](C(N)=O)NC(=O)[C@H](Cc2c[nH]c3ccccc23)NC(=O)[C@H](CCCNC(=N)N)NC(=O)[C@@H](Cc2cccc(Cl)c2)NC(=O)[C@H]([C@@H](C)O)NC1=O
notes: also called No. 36
B5: Ac-Arg-cyclo(Glu-Thr-D-Phe(2-Cl)-Arg-Trp-Orn)-NH2 (peptide)
peptide: Ac-RET[dPhe(2-Cl)]RW[Orn]-NH2
modifications: lactam 2-7
SMILES: CC(=O)N[C@@H](CCCNC(=N)N)C(=O)N[C@H]1CCC(=O)NCCC[C@@H](C(N)=O)NC(=O)[C@H](Cc2c[nH]c3ccccc23)NC(=O)[C@H](CCCNC(=N)N)NC(=O)[C@@H](Cc2ccccc2Cl)NC(=O)[C@H]([C@@H](C)O)NC1=O
notes: also called No. 32
B6: Ac-Arg-cyclo(Glu-Pro-D-Phe(2-Cl)-Arg-Trp-Orn)-NH2 (peptide)
peptide: Ac-REP[dPhe(2-Cl)]RW[Orn]-NH2
modifications: lactam 2-7
SMILES: CC(=O)N[C@@H](CCCNC(=N)N)C(=O)N[C@H]1CCC(=O)NCCC[C@@H](C(N)=O)NC(=O)[C@H](Cc2c[nH]c3ccccc23)NC(=O)[C@H](CCCNC(=N)N)NC(=O)[C@@H](Cc2ccccc2Cl)NC(=O)[C@@H]2CCCN2C1=O
notes: also called No. 88
B7: Ac-Arg-cyclo(Glu-Lys-D-Phe(3-Cl)-Arg-Trp-Orn)-NH2 (peptide)
peptide: Ac-REK[dPhe(3-Cl)]RW[Orn]-NH2
modifications: lactam 2-7
SMILES: CC(=O)N[C@@H](CCCNC(=N)N)C(=O)N[C@H]1CCC(=O)NCCC[C@@H](C(N)=O)NC(=O)[C@H](Cc2c[nH]c3ccccc23)NC(=O)[C@H](CCCNC(=N)N)NC(=O)[C@@H](Cc2cccc(Cl)c2)NC(=O)[C@H](CCCCN)NC1=O
notes: also called No. 100

Target: T1, human melanocortin-4 receptor (human, UniProt P32245 1-332)
T1 sequence (P32245 whole entry): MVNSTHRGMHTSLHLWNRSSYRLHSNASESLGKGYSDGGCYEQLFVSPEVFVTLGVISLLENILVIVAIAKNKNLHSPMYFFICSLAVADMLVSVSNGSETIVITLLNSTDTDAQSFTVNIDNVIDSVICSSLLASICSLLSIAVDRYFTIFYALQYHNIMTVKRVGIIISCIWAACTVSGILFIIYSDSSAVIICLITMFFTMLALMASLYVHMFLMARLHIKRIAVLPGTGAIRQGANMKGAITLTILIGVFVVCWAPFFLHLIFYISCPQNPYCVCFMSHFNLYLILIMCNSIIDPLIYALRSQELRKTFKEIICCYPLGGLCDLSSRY
Assay: cell-based or functional assay

Row | Binder | EC50, cAMP, 0.1 ng/mL Doxycycline [nM] | EC50, cAMP, 10 ng/mL Doxycycline [nM] | Intrinsic Activity, cAMP, 0.1 ng/mL Doxycycline [%] | Intrinsic Activity, cAMP, 10 ng/mL Doxycycline [%]
1 | Ac-REQ[dPhe(2-F)]RW[Orn]-NH2 (lactam 2-7, also called No. 59) [Ac-Arg-cyclo(Glu-Gln-D-Phe(2-F)-Arg-Trp-Orn)-NH2] | 0.6 | 0.1 | 90 | 98
2 | Ac-R[Orn]N[dPhe(3,4,5-F3)]RWE-NH2 (lactam 2-7) [Ac-Arg-cyclo(Orn-Asn-D-Phe(3,4,5-triF)-Arg-Trp-Glu)-NH2] | – | 0.235 | 24 | 100
3 | Ac-R[Orn]N[dPhe(4-F)]RWE-NH2 (lactam 2-7, also called No. 70) [Ac-Arg-cyclo(Orn-Asn-D-Phe(4-F)-Arg-Trp-Glu)-NH2] | 0.4 | 0.1 | 64 | –
4 | Ac-R[Orn]Q[dPhe(2-Cl)]RWE-NH2 (lactam 2-7) [Ac-Arg-cyclo(Orn-Gln-D-Phe(2-Cl)-Arg-Trp-Glu)-NH2] | 0.39 | 0.07 | 83 | 101
5 | B1 | 3 | 0.15 | 35 | 94
6 | Ac-R[Orn]Q[dPhe(2-Me)]RWE-NH2 (lactam 2-7) [Ac-Arg-cyclo(Orn-Gln-D-Phe(2-Me)-Arg-Trp-Glu)-NH2] | 0.575 | 0.053 | 81 | 104
7 | Ac-R[Orn]Q[dPhe(3,4,5-F3)]RWE-NH2 (lactam 2-7) [Ac-Arg-cyclo(Orn-Gln-D-Phe(3,4,5-triF)-Arg-Trp-Glu)-NH2] | 0.45 | 0.14 | 47 | 100
8 | Ac-R[Orn]Q[dPhe(4-CN)]RWE-NH2 (lactam 2-7, also called No. 94) [Ac-Arg-cyclo(Orn-Gln-D-Phe(4-CN)-Arg-Trp-Glu)-NH2] | 0.24 | 0.09 | 32 | 92
9 | B2 | 0.8 | 0.1 | 49 | 100
10 | Ac-REQ[dPhe(4-CN)]RW[Orn]-NH2 (lactam 2-7; also: acetate salt, acetate salt form; also called Ex 46) [Ac-Arg-cyclo(Glu-Gln-D-Phe(4-CN)-Arg-Trp-Orn)-NH2] | 0.666 | 0.173 | 40 | 97
11 | B3 | – | 0.14 | 32 | 94
12 | B4 | – | 1 | 8 | 89
13 | Ac-REN[dPhe(2-CF3)]RW[Orn]-NH2 (lactam 2-7, also called No. 116) [Ac-Arg-cyclo(Glu-Asn-D-Phe(2-CF3)-Arg-Trp-Orn)-NH2] | 0.68 | 0.095 | 77 | 104
14 | Ac-REV[dPhe(4-CN)]RW[Orn]-NH2 (lactam 2-7, also called No. 42) [Ac-Arg-cyclo(Glu-Val-D-Phe(4-CN)-Arg-Trp-Orn)-NH2] | – | 0.5 | 9 | 84
15 | B5 | 18 | 0.543 | 34 | 96
16 | Ac-RES[dPhe(3-Cl)]RW[Orn]-NH2 (lactam 2-7, also called No. 35) [Ac-Arg-cyclo(Glu-Ser-D-Phe(3-Cl)-Arg-Trp-Orn)-NH2] | – | 1 | 6 | 84
17 | Ac-REN[dPhe(4-CN)]RW[Orn]-OH (lactam 2-7, also called No. 85) [Ac-Arg-cyclo(Glu-Asn-D-Phe(4-CN)-Arg-Trp-Orn)-OH] | 15 | 0.707 | 36 | 94
18 | Ac-REN[dPhe(2-Me)]RW[Orn]-NH2 (lactam 2-7, also called No. 73) [Ac-Arg-cyclo(Glu-Asn-D-Phe(2-Me)-Arg-Trp-Orn)-NH2] | 0.587 | 0.068 | 86 | 102
19 | B6 | – | 0.35 | 15 | 89
20 | Ac-REN[dPhe(3,5-F2)]RW[Orn]-NH2 (lactam 2-7, also called No. 76) [Ac-Arg-cyclo(Glu-Asn-D-Phe(3,5-diF)-Arg-Trp-Orn)-NH2] | 3 | 0.135 | 53 | 85
21 | Ac-REN[dPhe(3,4,5-F3)]RW[Orn]-NH2 (lactam 2-7, also called No. 95) [Ac-Arg-cyclo(Glu-Asn-D-Phe(3,4,5-triF)-Arg-Trp-Orn)-NH2] | 1 | 0.125 | 42 | 100
22 | Ac-REE[dPhe(4-CN)]RW[Orn]-OH (lactam 2-7) [Ac-Arg-cyclo(Glu-Glu-D-Phe(4-CN)-Arg-Trp-Orn)-OH] | – | 269 | 2 | 69
23 | B7 | 6 | 0.27 | 27 | 93
24 | Ac-R[Orn]N[dPhe(3-Me)]RWE-NH2 (lactam 2-7, also called No. 72) [Ac-Arg-cyclo(Orn-Asn-D-Phe(3-Me)-Arg-Trp-Glu)-NH2] | 3 | 0.35 | 11 | –

Target: T1, human melanocortin-4 receptor
Assay: [I125]-NDP-α-MSH competition, hMC4-R HEK-293 membranes
Experimental: A competitive inhibition binding assay was performed for exemplified peptides according to the invention using membrane homogenates prepared from HEK-293 cells that express recombinant hMC4-R, hMC3-R, or hMC5-R, and from B-16 mouse melanoma cells (containing endogenous MC1-R). In some instances, HEK-293 cells that express recombinant hMC1-R were employed. Assays were performed in 96 well GF/B Millipore multiscreen filtration plates (MAFB NOB10) pre-coated with 0.5% bovine serum albumin (Fraction V). […] After incubation for 60 minutes at 37° C., the assay mixture was filtered and the membranes washed three times with ice-cold buffer. Filters were dried and counted in a gamma counter for bound radioactivity. […] Each assay was conducted in triplicate and the actual mean values are described, with results less than 0% reported as 0%. Ki values for test peptides of the present invention were determined using Graph-Pad Prism® curve-fitting software.

Row | Binder | Ki [nM]
25 | Ac-REQ[dPhe(2-F)]RW[Orn]-NH2 (lactam 2-7, also called No. 59) [Ac-Arg-cyclo(Glu-Gln-D-Phe(2-F)-Arg-Trp-Orn)-NH2] | 7
26 | Ac-R[Orn]N[dPhe(4-F)]RWE-NH2 (lactam 2-7, also called No. 70) [Ac-Arg-cyclo(Orn-Asn-D-Phe(4-F)-Arg-Trp-Glu)-NH2] | 3
27 | Ac-R[Orn]Q[dPhe(2-Cl)]RWE-NH2 (lactam 2-7) [Ac-Arg-cyclo(Orn-Gln-D-Phe(2-Cl)-Arg-Trp-Glu)-NH2] | 4
28 | B1 | 7
29 | Ac-R[Orn]Q[dPhe(4-CN)]RWE-NH2 (lactam 2-7, also called No. 94) [Ac-Arg-cyclo(Orn-Gln-D-Phe(4-CN)-Arg-Trp-Glu)-NH2] | 0.9
30 | Ac-REQ[dPhe(4-CN)]RW[Orn]-NH2 (lactam 2-7; also: acetate salt, acetate salt form; also called Ex 46) [Ac-Arg-cyclo(Glu-Gln-D-Phe(4-CN)-Arg-Trp-Orn)-NH2] | 4
31 | B3 | 0.5
32 | B4 | 6
33 | Ac-REN[dPhe(2-CF3)]RW[Orn]-NH2 (lactam 2-7, also called No. 116) [Ac-Arg-cyclo(Glu-Asn-D-Phe(2-CF3)-Arg-Trp-Orn)-NH2] | 7
34 | Ac-REV[dPhe(4-CN)]RW[Orn]-NH2 (lactam 2-7, also called No. 42) [Ac-Arg-cyclo(Glu-Val-D-Phe(4-CN)-Arg-Trp-Orn)-NH2] | 6
35 | B5 | 11
36 | Ac-RES[dPhe(3-Cl)]RW[Orn]-NH2 (lactam 2-7, also called No. 35) [Ac-Arg-cyclo(Glu-Ser-D-Phe(3-Cl)-Arg-Trp-Orn)-NH2] | 10
37 | Ac-REN[dPhe(4-CN)]RW[Orn]-OH (lactam 2-7, also called No. 85) [Ac-Arg-cyclo(Glu-Asn-D-Phe(4-CN)-Arg-Trp-Orn)-OH] | 64
38 | Ac-REN[dPhe(2-Me)]RW[Orn]-NH2 (lactam 2-7, also called No. 73) [Ac-Arg-cyclo(Glu-Asn-D-Phe(2-Me)-Arg-Trp-Orn)-NH2] | 4
39 | B6 | 5
40 | Ac-REN[dPhe(3,5-F2)]RW[Orn]-NH2 (lactam 2-7, also called No. 76) [Ac-Arg-cyclo(Glu-Asn-D-Phe(3,5-diF)-Arg-Trp-Orn)-NH2] | 20
41 | Ac-REN[dPhe(3,4,5-F3)]RW[Orn]-NH2 (lactam 2-7, also called No. 95) [Ac-Arg-cyclo(Glu-Asn-D-Phe(3,4,5-triF)-Arg-Trp-Orn)-NH2] | 3
42 | Ac-REE[dPhe(4-CN)]RW[Orn]-OH (lactam 2-7) [Ac-Arg-cyclo(Glu-Glu-D-Phe(4-CN)-Arg-Trp-Orn)-OH] | 1090
43 | B7 | 4
44 | Ac-R[Orn]N[dPhe(3-Me)]RWE-NH2 (lactam 2-7, also called No. 72) [Ac-Arg-cyclo(Orn-Asn-D-Phe(3-Me)-Arg-Trp-Glu)-NH2] | 4
